In article PMC10868123:

Target: VPS13C, endogenous in HEK-293 cells [human (endogenous in HEK-293 FT/HEK-293 T)]
Assay: co-IP (anti-GFP IP, immunoblot quantification)
Conditions: N = 4; parent: 1; read off a plot

Row | Substance | ratio to parent
1 | eGFP-Rab10 WT mutant T73A [not stated] / VPS13C, endogenous in HEK-293 cells [human (endogenous in HEK-293 FT/HEK-293 T)] chain 1 T73A | 0.34
2 | eGFP-Rab10 WT mutant T73E [not stated] / VPS13C, endogenous in HEK-293 cells [human (endogenous in HEK-293 FT/HEK-293 T)] chain 1 T73E | 1.3
